Test results as given in US20260248972A1, “DUAL RECEPTOR TARGETING RADIOLIGANDS AND USES THEREOF RELATED APPLICATIONS” (priority 2022, published 2026).
Read-outs that look alike come from different tables or passages of the source.

What was measured:
CCK2R = molecular target: T1, CCK2R (Rattus norvegicus, UniProt P30553); test: Competitive cell-binding assay on AR42J cells with 125I-C3 as competitive ligand; conditions: for IC50: AR42J cells, 125I-C3 competitive ligand, 37° C. 1 h, read-out: CCK2R/IC50
T1 construct: host or cells: AR42J cells
T1 sequence (P30553 1-452): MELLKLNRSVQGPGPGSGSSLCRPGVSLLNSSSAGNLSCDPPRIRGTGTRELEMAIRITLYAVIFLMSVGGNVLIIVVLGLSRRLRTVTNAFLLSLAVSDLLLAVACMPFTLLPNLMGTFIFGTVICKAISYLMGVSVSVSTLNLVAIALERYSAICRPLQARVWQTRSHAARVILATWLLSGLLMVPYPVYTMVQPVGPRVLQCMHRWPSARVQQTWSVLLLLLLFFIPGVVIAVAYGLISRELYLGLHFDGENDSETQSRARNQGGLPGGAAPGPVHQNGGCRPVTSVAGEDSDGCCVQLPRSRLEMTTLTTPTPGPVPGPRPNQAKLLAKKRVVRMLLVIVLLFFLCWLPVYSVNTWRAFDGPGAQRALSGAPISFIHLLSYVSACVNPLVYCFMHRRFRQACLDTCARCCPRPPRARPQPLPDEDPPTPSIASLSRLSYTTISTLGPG
Protocol: (§1) AR42J cells (ATCC) were maintained in RPMI-1640 medium (Gibco) supplemented with 15% fetal bovine serum (Gibco) and 1% penicillin-streptomycin (BI) at 37° C. in a humidified incubator with 5% CO2. The culture medium was replaced with fresh medium every 2-3 days. Experiments were performed with cells at 70-80% confluence.
(§2) Binding Affinity Tested by Using ^125I-Labeled Competitive Ligands.
(§3) The binding affinities of test compounds were determined by a competitive cell-binding assay using ^125I-C1 and ^125I-C3 as the competitive ligand. The suspended AR42J cells at a density of 1~3×10^6 cells/mL in binding buffer (RPMI-1640 medium supplemented with 0.25% bovine serum albumin) were transferred to a MultiScreen-DV Filter Plate (Millipore) with 100 μL per well except the blank group where the binding buffer was used instead. The cells were then incubated with ^125I-C1 and ^125I-C3 (0.02 μCi/well) in the presence of increasing concentrations (0-10000 nM) of test compounds at 37° C. for 1 h (n=3). The final volume in each well was maintained at 200 μL and insufficient volume was adjusted by the binding buffer. After the 1 h incubation, unbound ^125I-competitive ligands were removed by filtration using a Multiscreen vacuum manifold (Millipore) followed by rinses with the binding buffer (3 times). The filters were collected, and their radioactivity were individually measured by γ counter (2480 WIZARD2, PerkinElmer). The best-fit IC50value (inhibitory concentration when 50% of the bound ^125I-C1 and ^125l I-C3 on cells were displaced) of test compounds were calculated by fitting the data with nonlinear regression using GraphPad Prism 8.0.1.

SSTR2 = molecular target: T2, SSTR2 (Rattus norvegicus, UniProt P30680); test: Competitive cell-binding assay on AR42J cells with 125I-C1 as competitive ligand; conditions: for IC50: AR42J cells, 125I-C1 competitive ligand, 37° C. 1 h, read-out: SSTR2/IC50
T2 construct: host or cells: AR42J cells
Protocol: as §1, §2, §3

in vivo = conditions: BALB/c nude, mouse, in vivo, iv, total radioactivity
Outline: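 Compounds labelled with ^177Lu in 0.5 M NaOAc pH 4.5 at 95° C for 15 min, then used directly or diluted in PBS with 3 mg/mL ascorbate. BALB/c nude mice bore subcutaneous AR42J flank xenografts (0.05-0.50 g). Organs excised at 4, 24 and 72 h post-injection and γ-counted for % ID and % ID/g.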

T2 sequence (P30680 whole entry): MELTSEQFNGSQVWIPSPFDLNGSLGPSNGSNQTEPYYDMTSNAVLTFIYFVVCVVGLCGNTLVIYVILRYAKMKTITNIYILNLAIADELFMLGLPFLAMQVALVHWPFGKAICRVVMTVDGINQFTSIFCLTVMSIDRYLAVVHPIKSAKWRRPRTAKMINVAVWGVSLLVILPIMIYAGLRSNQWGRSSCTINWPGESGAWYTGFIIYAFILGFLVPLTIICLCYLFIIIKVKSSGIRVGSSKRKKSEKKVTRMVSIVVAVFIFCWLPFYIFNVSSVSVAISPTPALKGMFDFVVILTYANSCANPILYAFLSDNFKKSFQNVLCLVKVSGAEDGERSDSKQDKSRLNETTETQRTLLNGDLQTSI

| Compound | Relative Binding Affinity CCK2R (CCK2R; based on mean IC50, C-2 = 1.00) | Relative Binding Affinity SSTR2 (SSTR2; based on mean IC50, C-1 = 1.00) | tissue to tissue ratio at 24 h (in vivo; T/K Tumor/Kidney ratio) | tissue to tissue ratio at 24 h (in vivo; T/L Tumor/Liver ratio) | tissue to tissue ratio at 24 h (in vivo; T/P Tumor/Pancreas ratio) | tissue to tissue ratio at 24 h (in vivo; T/Sp Tumor/Spleen ratio) | tissue to tissue ratio at 24 h (in vivo; T/St Tumor/Stomach ratio) | tissue uptake at 24 h (in vivo; uptake Kidney) | tissue uptake at 24 h (in vivo; uptake Liver) | tissue uptake at 24 h (in vivo; uptake Pancreas) | tissue uptake at 24 h (in vivo; uptake Spleen) | tissue uptake at 24 h (in vivo; uptake Stomach) | tissue uptake at 24 h (in vivo; uptake Tumor) | IC50 (CCK2R) | IC50 (SSTR2) | Relative Binding Affinity CCK2R (CCK2R) | Relative Binding Affinity SSTR2 (SSTR2) |
| --- | --- | --- | --- | --- | --- | --- | --- | --- | --- | --- | --- | --- | --- | --- | --- | --- | --- |
| C[C@@H](O)[C@H](NC(=O)[C@@H]1CSSC[C@H](NC(=O)[C@@H](Cc2ccccc2)NC(=O)COCCOCCNC(=O)C(CCCCNC(=O)CC[C@H](NC(=O)CNC(=O)c2cccc(NC(=O)N[C@@H]3CN(C4CCCCC4)c4ccccc4N(CC(=O)C(C)(C)C)C3=O)c2)C(=O)O)NC(=O)COCCOCCNC(=O)CC[C@H](NC(=O)CC[C@H](NC(=O)CN2CCN(CC(=O)O)CCN(CC(=O)O)CCN(CC(=O)O)CC2)C(=O)O)C(=O)O)C(=O)N[C@@H](Cc2ccc(O)cc2)C(=O)N[C@H](Cc2c[nH]c3ccccc23)C(=O)N[C@@H](CCCCN)C(=O)N[C@@H]([C@@H](C)O)C(=O)N1)C(=O)O (stereo in doubt) [Compound I-14, DOTA-gE-gE-OEG-K(-gE-G-Z360)-OEG-f[CYwKTC]T-OH] | 3.80 | 3.50 | 0.2 | 6.7 | 4.4 | 27 | 6.6 | 68.6 %ID/g | 2.24 %ID/g | 3.37 %ID/g | 0.56 %ID/g | 2.25 %ID/g | 14.9 %ID/g | – | – | – | – |
| C[C@@H](O)[C@H](NC(=O)[C@@H]1CSSC[C@H](NC(=O)[C@@H](Cc2ccccc2)NC(=O)COCCOCCNC(=O)[C@H](CCCCNC(=O)[C@H](CCC(=O)O)NC(=O)c2cccc(NC(=O)N[C@@H]3CN(C4CCCCC4)c4ccccc4N(CC(=O)C(C)(C)C)C3=O)c2)NC(=O)CN2CCN(CC(=O)O)CCN(CC(=O)O)CCN(CC(=O)O)CC2)C(=O)N[C@@H](Cc2ccc(O)cc2)C(=O)N[C@H](Cc2c[nH]c3ccccc23)C(=O)N[C@@H](CCCCN)C(=O)N[C@@H]([C@@H](C)O)C(=O)N1)C(N)=O [Compound I-3, DOTA-K(-E-Z360)-OEG-f[CYwKTC]T-NH2] | 5.3 | 0.50 | 0.8 | 12 | 13 | 45 | 4.2 | 16.5 %ID/g | 1.16 %ID/g | 1.05 %ID/g | 0.3 %ID/g | 3.24 %ID/g | 13.6 %ID/g | – | – | – | – |
| C[C@@H](O)[C@H](NC(=O)[C@@H]1CSSC[C@H](NC(=O)[C@@H](Cc2ccccc2)NC(=O)CC[C@H](NC(=O)[C@H](CCCCNC(=O)CC[C@H](NC(=O)CNC(=O)c2cccc(NC(=O)N[C@@H]3CN(C4CCCCC4)c4ccccc4N(CC(=O)C(C)(C)C)C3=O)c2)C(=O)O)NC(=O)CC[C@H](NC(=O)CN2CCN(CC(=O)O)CCN(CC(=O)O)CCN(CC(=O)O)CC2)C(=O)O)C(=O)O)C(=O)N[C@@H](Cc2ccc(O)cc2)C(=O)N[C@H](Cc2c[nH]c3ccccc23)C(=O)N[C@@H](CCCCN)C(=O)N[C@@H]([C@@H](C)O)C(=O)N1)C(=O)O [Compound I-9, DOTA-gE-K(-gE-G-Z360)-gE-f[CYwKTC]T-OH] | 13.5 | 2.85 | 0.3 | 8.3 | 3.8 | 11 | 3.4 | 42.2 %ID/g | 1.31 %ID/g | 2.89 %ID/g | 1.03 %ID/g | 3.22 %ID/g | 10.9 %ID/g | – | – | – | – |
| C[C@@H](O)[C@H](NC(=O)[C@@H]1CSSC[C@H](NC(=O)[C@@H](Cc2ccccc2)NC(=O)COCCOCCNC(=O)[C@H](CCCCNC(=O)CCC(C(=O)O)N2CCN(CC(=O)O)CCN(CC(=O)O)CCN(CC(=O)O)CC2)NC(=O)COCCOCCNC(=O)CC[C@H](NC(=O)CC[C@H](NC(=O)c2cccc(NC(=O)N[C@@H]3CN(C4CCCCC4)c4ccccc4N(CC(=O)C(C)(C)C)C3=O)c2)C(=O)O)C(=O)O)C(=O)N[C@@H](Cc2ccc(O)cc2)C(=O)N[C@H](Cc2c[nH]c3ccccc23)C(=O)N[C@@H](CCCCN)C(=O)N[C@@H]([C@@H](C)O)C(=O)N1)C(=O)O (stereo partly shown) [Compound I-13, (Z360)- gE- gE- OEG- K(DOTAGA)- OEG- f[CYwKTC]T- OH] | 10.8 | 0.23 | 0.3 | 12 | 12 | 32 | 6.8 | 46.7 %ID/g | 1.21 %ID/g | 1.21 %ID/g | 0.47 %ID/g | 2.19 %ID/g | 14.8 %ID/g | 1.6 nM | 12.3 nM | – | – |
| C[C@@H](O)[C@H](NC(=O)[C@@H]1CSSC[C@H](NC(=O)[C@@H](Cc2ccccc2)NC(=O)COCCOCCNC(=O)COCCOCCNC(=O)COCCOCCNC(=O)[C@H](CCCCNC(=O)c2cccc(NC(=O)N[C@@H]3CN(C4CCCCC4)c4ccccc4N(CC(=O)C(C)(C)C)C3=O)c2)NC(=O)CN2CCN(CC(=O)O)CCN(CC(=O)O)CCN(CC(=O)O)CC2)C(=O)N[C@@H](Cc2ccc(O)cc2)C(=O)N[C@H](Cc2c[nH]c3ccccc23)C(=O)N[C@@H](CCCCN)C(=O)N[C@@H]([C@@H](C)O)C(=O)N1)C(=O)O [Compound I-45, DOTA-K(Z360)-OEG-OEG-OEG-f[CYwKTC]T-OH] | 1.7 | 1.36 | – | – | – | – | – | – | – | – | – | – | – | 9.9 nM | 2.07 nM | – | – |
| C[C@@H](O)[C@H](NC(=O)[C@@H]1CSSC[C@H](NC(=O)[C@@H](Cc2ccccc2)NC(=O)[C@H](CCCCNC(=O)COCCOCCNC(=O)COCCOCCNC(=O)COCCOCCNC(=O)c2cccc(NC(=O)N[C@@H]3CN(C4CCCCC4)c4ccccc4N(CC(=O)C(C)(C)C)C3=O)c2)NC(=O)CN2CCN(CC(=O)O)CCN(CC(=O)O)CCN(CC(=O)O)CC2)C(=O)N[C@@H](Cc2ccc(O)cc2)C(=O)N[C@H](Cc2c[nH]c3ccccc23)C(=O)N[C@@H](CCCCN)C(=O)N[C@@H]([C@@H](C)O)C(=O)N1)C(=O)O [Compound I-46, DOTA-K(-OEG-OEG-OEG-Z360)-f[CYwKTC]T-OH] | – | – | – | – | – | – | – | – | – | – | – | – | – | – | – | 50.2 | 0.43 |
| C[C@@H](O)[C@H](NC(=O)[C@@H]1CSSC[C@H](NC(=O)[C@@H](Cc2ccccc2)NC(=O)COCCOCCNC(=O)[C@H](CCCCNC(=O)CC[C@H](NC(=O)CNC(=O)c2cccc(NC(=O)NC3CN(C4CCCCC4)c4ccccc4N(CC(=O)C(C)(C)C)C3=O)c2)C(=O)O)NC(=O)COCCOCCNC(=O)COCCOCCNC(=O)[C@@H](N)CCCCNC(=O)[C@@H](N)CCCCNC(=O)CN2CCN(CC(=O)O)CCN(CC(=O)O)CCN(CC(=O)O)CC2)C(=O)N[C@@H](Cc2ccc(O)cc2)C(=O)N[C@H](Cc2c[nH]c3ccccc23)C(=O)N[C@@H](CCCCN)C(=O)N[C@@H]([C@@H](C)O)C(=O)N1)C(=O)O (stereo partly shown) [Compound I-65, DOTA-eK-eK-OEG-OEG-K(-gE-G-Z360)-OEG-f[CYwKTC]T-OH] | 1.8 | 20.7 | – | – | – | – | – | – | – | – | – | – | – | 9.4 nM | 0.136 nM | – | – |
